Activity data for two molecules are collected here from patent US20150079657, “TARGETED HISTONE ACETYLATION” (SIGMA-ALDRICH CO. LLC, published 2015).

Data set [1] deals with ZF(Oct4+181)-p300 (Artificial Sequence). Briefly: cell_activity; OCT4 mRNA activation in HEK293, 48 h; H3K18 and H3K27 acetylation also increased by ChIP (FIG. 1). Conditions: tags: C-terminal fusion to human p300 HAT domain aa 1284-1673 (NM_001429). The method, then:
Expression vectors encoding ZF(Oct4+181)-p300 or one of the control fusion proteins described above were transfected into HEK 293 cells. Control cells were transfected with vectors encoding GFP, p65 (no ZF), or p300 (no ZF). After 48 hrs, the cells were harvested and total RNA was isolated. The levels of OCT4 mRNA and cyclophilin A (i.e., PPIA) endogenous control mRNA were measured by real time reverse transcriptase polymerase chain reaction (RT-PCR) (Life Technologies, Carlsbad, Calif.). The OCT4/cyc ratio was used for normalizing OCT4 expression.

For data set [2], the target named is ZF6961 (ZF(PEDF))-p300 (Artificial Sequence). The experiment in a line: cell_activity; PEDF mRNA activation in HEK293, 72 h. Conditions: tags: fusion to human p300 HAT domain aa 1284-1673. The procedure:
Expression vectors encoding ZF(PEDF)-p300 or ZF(PEDF)-p65 were transfected into HEK 293 cells. Control cells were transfected with vectors encoding GFP, p65 (no ZF), or p300 (no ZF). Total RNA was isolated 72 hours later, and the levels of PEDF mRNA and cyclophilin A endogenous control mRNA were measured by RT-PCR. The PEDF/cyc ratio was used for normalizing PEDF expression.

Some results are limits rather than exact numbers.

Sequence of ZF6961 (ZF(PEDF))-p300 (Artificial Sequence) (chain, as listed by the source): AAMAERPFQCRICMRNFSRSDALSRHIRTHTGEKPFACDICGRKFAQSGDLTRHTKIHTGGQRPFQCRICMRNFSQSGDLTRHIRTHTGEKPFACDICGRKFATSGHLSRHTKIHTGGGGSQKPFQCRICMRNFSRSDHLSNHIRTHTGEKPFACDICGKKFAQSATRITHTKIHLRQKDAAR
Sequence of ZF(Oct4+181)-p300 (Artificial Sequence) (chain, as listed by the source): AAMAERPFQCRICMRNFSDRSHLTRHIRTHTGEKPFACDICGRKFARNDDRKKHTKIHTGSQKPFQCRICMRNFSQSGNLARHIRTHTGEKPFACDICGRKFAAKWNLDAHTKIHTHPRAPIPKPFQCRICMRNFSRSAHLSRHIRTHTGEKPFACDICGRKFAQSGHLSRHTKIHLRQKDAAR

B1: OCT4 +181 target site (dsDNA)
DNA 1: GGAGGGCCAGGAATCGGGC
DNA 2: GCCCGATTCCTGGCCCTCC
In data set [1], B1 gave an activity above 25 fold.

B2: PEDF -92 target site (dsDNA)
DNA 1: GGATGGTGGTGCAGCAGTG
DNA 2: CACTGCTGCACCACCATCC
B2 registered an activity in data set [2] above 2.5 fold.
